Experimental data as given in paper doi:10.1101/2022.05.07.491039 (bioRxiv, 2022).
Changes are numbered by the printed parent chain.

T1: αE-catenin R551A (mouse, UniProt P26231 1-906, R551A)
T1 sequence: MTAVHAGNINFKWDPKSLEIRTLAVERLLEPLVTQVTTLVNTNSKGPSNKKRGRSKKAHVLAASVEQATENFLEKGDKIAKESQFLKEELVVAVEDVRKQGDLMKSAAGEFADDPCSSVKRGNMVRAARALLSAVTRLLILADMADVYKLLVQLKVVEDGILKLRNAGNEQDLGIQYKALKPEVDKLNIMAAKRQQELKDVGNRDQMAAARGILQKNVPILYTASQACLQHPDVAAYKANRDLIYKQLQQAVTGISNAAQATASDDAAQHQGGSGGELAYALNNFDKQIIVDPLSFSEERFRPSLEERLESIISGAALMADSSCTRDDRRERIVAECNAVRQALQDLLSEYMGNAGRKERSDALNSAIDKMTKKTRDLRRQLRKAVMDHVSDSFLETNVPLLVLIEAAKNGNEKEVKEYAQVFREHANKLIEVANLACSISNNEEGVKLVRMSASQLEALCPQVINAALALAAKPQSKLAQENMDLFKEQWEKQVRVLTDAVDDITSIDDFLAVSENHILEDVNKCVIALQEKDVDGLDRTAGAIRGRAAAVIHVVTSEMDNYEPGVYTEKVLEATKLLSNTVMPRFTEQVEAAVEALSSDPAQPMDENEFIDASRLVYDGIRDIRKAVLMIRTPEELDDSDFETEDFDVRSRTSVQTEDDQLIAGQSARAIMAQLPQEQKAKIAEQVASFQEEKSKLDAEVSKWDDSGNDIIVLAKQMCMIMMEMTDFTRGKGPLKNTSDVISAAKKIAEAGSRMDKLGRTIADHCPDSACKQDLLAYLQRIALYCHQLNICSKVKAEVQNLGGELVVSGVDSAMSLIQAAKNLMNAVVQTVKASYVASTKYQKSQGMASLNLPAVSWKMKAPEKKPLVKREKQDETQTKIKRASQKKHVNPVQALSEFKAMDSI

T2: full-length murine αE-catenin (mouse, UniProt P26231 1-906)
T2 sequence: T1 sequence with A551R

B1: Mouse E-cadherin cytoplasmic domain (domain or fragment)
chain: not shown
B2: chicken vinculin D1 domain (aa 1-259) (domain or fragment)
chain: MPVFHTRTIESILEPVAQQISHLVIMHEEGEVDGKAIPDLTAPVSAVQAAVSNLVRVGKETVQTTEDQILKRDMPPAFIKVENACTKLVRAAQMLQADPYSVPARDYLIDGSRGILSGTSDLLLTFDEAEVRKIIRVCKGILEYLTVAEVVETMEDLVTYTKNLGPGMTKMAKMIDERQQELTHQEHRVMLVNSMNTVKELLPVLISAMKIFVTTKNTKSQGIEEALKNRNFTVEKMSAEINEIIRVLQLTSWDEDAWA
B3: β-catenin (natural protein)
chain: MATQADLMELDMAMEPDRKAAVSHWQQQSYLDSGIHSGATTTAPSLSGKGNPEEEDVDTSQVLYEWEQGFSQSFTQEQVADIDGQYAMTRAQRVRAAMFPETLDEGMQIPSTQFDAAHPTNVQRLAEPSQMLKHAVVNLINYQDDAELATRAIPELTKLLNDEDQVVVNKAAVMVHQLSKKEASRHAIMRSPQMVSAIVRTMQNTNDVETARCTAGTLHNLSHHREGLLAIFKSGGIPALVKMLGSPVDSVLFYAITTLHNLLLHQEGAKMAVRLAGGLQKMVALLNKTNVKFLAITTDCLQILAYGNQESKLIILASGGPQALVNIMRTYTYEKLLWTTSRVLKVLSVCSSNKPAIVEAGGMQALGLHLTDPSQRLVQNCLWTLRNLSDAATKQEGMEGLLGTLVQLLGSDDINVVTCAAGILSNLTCNNYKNKMMVCQVGGIEALVRTVLRAGDREDITEPAICALRHLTSRHQEAEMAQNAVRLHYGLPVVVKLLHPPSHWPLIKATVGLIRNLALCPANHAPLREQGAIPRLVQLLVRAHQDTQRRTSMGGTQQQFVEGVRMEEIVEGCTGALHILARDVHNRIVIRGLNTIPLFVQLLYSPIENIQRVAAGVLCELAQDKEAAEAIEAEGATAPLTELLHSRNEGVATYAAAVLFRMSEDKPQDYKKRLSVELTSSLFRTEPMAWNETADLGLDIGAQGEALGYRQDDPSYRSFHSGGYGQDALGMDPMMEHEMGGHHPGADYPVDGLPDLGHAQDLMDGLPPGDSNQLAWFDTDL
B4: β-catenin 78-671 (domain or fragment)
chain: QVADIDGQYAMTRAQRVRAAMFPETLDEGMQIPSTQFDAAHPTNVQRLAEPSQMLKHAVVNLINYQDDAELATRAIPELTKLLNDEDQVVVNKAAVMVHQLSKKEASRHAIMRSPQMVSAIVRTMQNTNDVETARCTAGTLHNLSHHREGLLAIFKSGGIPALVKMLGSPVDSVLFYAITTLHNLLLHQEGAKMAVRLAGGLQKMVALLNKTNVKFLAITTDCLQILAYGNQESKLIILASGGPQALVNIMRTYTYEKLLWTTSRVLKVLSVCSSNKPAIVEAGGMQALGLHLTDPSQRLVQNCLWTLRNLSDAATKQEGMEGLLGTLVQLLGSDDINVVTCAAGILSNLTCNNYKNKMMVCQVGGIEALVRTVLRAGDREDITEPAICALRHLTSRHQEAEMAQNAVRLHYGLPVVVKLLHPPSHWPLIKATVGLIRNLALCPANHAPLREQGAIPRLVQLLVRAHQDTQRRTSMGGTQQQFVEGVRMEEIVEGCTGALHILARDVHNRIVIRGLNTIPLFVQLLYSPIENIQRVAAGVLCELAQDKEAAEAIEAEGATAPLTELLHSRNEGVATYAAAVLFRMSEDKPQDYK

What was measured:
Test in all cases: SEC
β-catenin = molecular target: B3
αE-catenin R551A = molecular target: T1, αE-catenin R551A
[1] = molecular target: T2, full-length murine αE-catenin

| binding result (β-catenin) | binding result (αE-catenin R551A) | binding result [1] | Binder |
| --- | --- | --- | --- |
| binds |  |  | B1 |
|  | binds |  | B2 |
|  | binds | binds | B3 |
|  |  | binds | B4 |
